Paper doi:10.1101/2021.03.23.436624 (bioRxiv, 2021)

Assays:
[1] = target: N. gonorrhoeae LptD (1-801)-3C-His10 and LptE (1-159)-AVI complex, biotinylated (Neisseria gonorrhoeae) (UniProt Q5F651); test: grating coupled interferometry
cryo-EM structure = target: the molecule itself; test: cryo-EM structure

B1: Sybody 21 (Sb21) (VHH)
VHH: QVQLVESGGGLVQAGGSLRLSCAASGFPVKYEHMYWYRQAPGKEREWVAAINSAGNETHYADSVKGRFTISRDNAKNTVYLQMNSLKPEDTAVYYCNVKDIGWWAAYDYWGQGTQVTV
- Kd [1]: 10 nM

B2: Neisseria gonorrhoeae LptD (NgLptD) (natural protein, UniProt Q5F651 24-801, looked up)
chain: ADTVAAEEADGRVAEGGAQGASESAQASDLTLGSTCLFCSNESGSPERTEAAVQGSGEASVPEDYTRIVADRMEGQSKVKVRAEGSVIIERDGAVLNTDWADYDQSGDTVTVGDRFALQQDGTLIRGETLTYNLDQQTGEAHNVRMETEQGGRRLQSVSRTAEMLGEGRYKLTETQFNTCSAGDAGWYVKAASVEADRGKGIGVAKHAAFVFGGVPLFYTPWADFPLDGNRKSGLLVPSVSAGSDGVSLSVPYYFNLAPNFDATFAPGIIGERGATFDGQIRYLRPDYSGQTDLTWLPHDKKSGRNNRYQAKWQHRHDISDTLQAGVDFNQVSDSGYYRDFYGGEEIAGNVNLNRRVWLDYGGRAAGGSLNAGLSVQKYQTLANQSGYKDEPYAIMPRLSADWHKNAGRAQIGVSAQFTRFSHDGRQDGSRLVVYPGIKWDFSNSWGYVRPKLGLHATYYSLDSFGGKASRSVGRVLPVVNIDGGTTFERNTRLFGGGVVQTIEPRLFYNYIPAKSQNDLPNFDSSESSFGYGQLFRENLYYGNDRINAANSLSTAVQSRILDGATGEERFRAGIGQKFYFKDDAVMLDGSVGKNPRSRSDWVAFASGGIGGRFTLDSSIHYNQNDKRAEHYAVGAGYRPAPGKVLNARYKYGRNEKIYLQADGSYFYDKLSQLDLSAQWPLTRNLSAVVRYNYGFEAKKPIEMLAGAEYKSSCGCWGAGVYAQRYVTGENTYKNAVFFSLQLKDLSSVGRNPAGRMDVAVPGYIPAHSLSAGRNKRP
- binding result (cryo-EM structure): binds
